In patent US20230236179A1:

Key:
[1] = target: human Brachyury protein standard (Abcam ab114235) (human) (UniProt O15178); test: conventional Simoa sandwich (capture beads + detector m8), 150 pM SβG/5 min; Brachyury at 6 fM
[2] = target: human Brachyury protein standard (Abcam ab114235) (human) (UniProt O15178); test: conventional Simoa sandwich (capture beads + detector m8), 150 pM SβG/5 min; Brachyury at 30 fM
[3] = target: human Brachyury protein standard (Abcam ab114235) (human) (UniProt O15178); test: conventional Simoa sandwich (capture beads + detector m8), 300 pM SβG/15 min; Brachyury at 6 fM
[4] = target: human Brachyury protein standard (Abcam ab114235) (human) (UniProt O15178); test: conventional Simoa sandwich (capture beads + detector m8), 150 pM SβG/5 min; Brachyury at 1.2 fM
[5] = target: human Brachyury protein standard (Abcam ab114235) (human) (UniProt O15178); test: conventional Simoa sandwich (capture beads + detector m8), 150 pM SβG/5 min; Brachyury at 150 fM
[6] = target: human Brachyury protein standard (Abcam ab114235) (human) (UniProt O15178); test: conventional Simoa sandwich (capture beads + detector m8), 300 pM SβG/15 min; Brachyury at 30 fM
[7] = target: human Brachyury protein standard (Abcam ab114235) (human) (UniProt O15178); test: dSimoa sandwich (capture beads + detector m8), 300 pM streptavidin-DNA/15 min; Brachyury at 6 fM
[8] = target: human Brachyury protein standard (Abcam ab114235) (human) (UniProt O15178); test: conventional Simoa sandwich (capture beads + detector m8), 150 pM SβG/5 min; Brachyury at 0.24 fM
[9] = target: human Brachyury protein standard (Abcam ab114235) (human) (UniProt O15178); test: conventional Simoa sandwich (capture beads + detector m8), 150 pM SβG/5 min; Brachyury at 1500 fM
[10] = target: human Brachyury protein standard (Abcam ab114235) (human) (UniProt O15178); test: conventional Simoa sandwich (capture beads + detector m8), 300 pM SβG/15 min; Brachyury at 1.2 fM
[11] = target: human Brachyury protein standard (Abcam ab114235) (human) (UniProt O15178); test: conventional Simoa sandwich (capture beads + detector m8), 300 pM SβG/15 min; Brachyury at 150 fM
[12] = target: human Brachyury protein standard (Abcam ab114235) (human) (UniProt O15178); test: dSimoa sandwich (capture beads + detector m8), 300 pM streptavidin-DNA/15 min; Brachyury at 30 fM
[13] = target: human Brachyury protein standard (Abcam ab114235) (human) (UniProt O15178); test: conventional Simoa sandwich (capture beads + detector m8), 150 pM SβG/5 min; Brachyury at 0.048 fM
[14] = target: human Brachyury protein standard (Abcam ab114235) (human) (UniProt O15178); test: conventional Simoa sandwich (capture beads + detector m8), 300 pM SβG/15 min; Brachyury at 0.24 fM
[15] = target: human Brachyury protein standard (Abcam ab114235) (human) (UniProt O15178); test: conventional Simoa sandwich (capture beads + detector m8), 300 pM SβG/15 min; Brachyury at 1500 fM
[16] = target: human Brachyury protein standard (Abcam ab114235) (human) (UniProt O15178); test: dSimoa sandwich (capture beads + detector m8), 300 pM streptavidin-DNA/15 min; Brachyury at 1.2 fM
[17] = target: human Brachyury protein standard (Abcam ab114235) (human) (UniProt O15178); test: dSimoa sandwich (capture beads + detector m8), 300 pM streptavidin-DNA/15 min; Brachyury at 150 fM
[18] = target: human Brachyury protein standard (Abcam ab114235) (human) (UniProt O15178); test: conventional Simoa sandwich (capture beads + detector m8), 300 pM SβG/15 min; Brachyury at 0.048 fM
[19] = target: human Brachyury protein standard (Abcam ab114235) (human) (UniProt O15178); test: dSimoa sandwich (capture beads + detector m8), 300 pM streptavidin-DNA/15 min; Brachyury at 0.24 fM
[20] = target: human Brachyury protein standard (Abcam ab114235) (human) (UniProt O15178); test: dSimoa sandwich (capture beads + detector m8), 300 pM streptavidin-DNA/15 min; Brachyury at 0.048 fM
[21] = target: IL-6 protein standard (R&D Systems 206-IL-010) (UniProt P05231); test: conventional Simoa sandwich on HD-1 (capture beads + detection antibody m11, SβG); IL-6 at 1 fM
Chain of UniProt P05231 (P05231 30-212 limits assumed): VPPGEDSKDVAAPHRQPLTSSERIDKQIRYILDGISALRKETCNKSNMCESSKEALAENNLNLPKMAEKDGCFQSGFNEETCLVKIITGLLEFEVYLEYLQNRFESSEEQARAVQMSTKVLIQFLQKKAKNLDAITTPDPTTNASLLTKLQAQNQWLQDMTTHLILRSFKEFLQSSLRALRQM

[22] = target: IL-6 protein standard (R&D Systems 206-IL-010) (UniProt P05231); test: conventional Simoa sandwich on HD-1 (capture beads + detection antibody m11, SβG); IL-6 at 10 fM
[23] = target: IL-6 protein standard (R&D Systems 206-IL-010) (UniProt P05231); test: conventional Simoa sandwich on HD-1 (capture beads + detection antibody m11, SβG); IL-6 at 50 fM
[24] = target: IL-6 protein standard (R&D Systems 206-IL-010) (UniProt P05231); test: conventional Simoa sandwich on HD-1 (capture beads + detection antibody m11, SβG); IL-6 at 0.1 fM
[25] = target: IL-6 protein standard (R&D Systems 206-IL-010) (UniProt P05231); test: conventional Simoa sandwich on HD-1 (capture beads + detection antibody m11, SβG); IL-6 at 0.5 fM
[26] = target: IL-6 protein standard (R&D Systems 206-IL-010) (UniProt P05231); test: conventional Simoa sandwich on HD-1 (capture beads + detection antibody m11, SβG); IL-6 at 100 fM
[27] = target: IL-6 protein standard (R&D Systems 206-IL-010) (UniProt P05231); test: CARD-dELISA sandwich (capture beads + detection antibody m11, streptavidin-poly-HRP, tyramide); IL-6 at 1 fM
[28] = target: IL-6 protein standard (R&D Systems 206-IL-010) (UniProt P05231); test: CARD-dELISA sandwich (capture beads + detection antibody m11, streptavidin-poly-HRP, tyramide); IL-6 at 10 fM
[29] = target: IL-6 protein standard (R&D Systems 206-IL-010) (UniProt P05231); test: CARD-dELISA sandwich (capture beads + detection antibody m11, streptavidin-poly-HRP, tyramide); IL-6 at 50 fM
[30] = target: IL-6 protein standard (R&D Systems 206-IL-010) (UniProt P05231); test: CARD-dELISA sandwich (capture beads + detection antibody m11, streptavidin-poly-HRP, tyramide); IL-6 at 0.1 fM
[31] = target: IL-6 protein standard (R&D Systems 206-IL-010) (UniProt P05231); test: CARD-dELISA sandwich (capture beads + detection antibody m11, streptavidin-poly-HRP, tyramide); IL-6 at 0.5 fM
[32] = target: IL-6 protein standard (R&D Systems 206-IL-010) (UniProt P05231); test: CARD-dELISA sandwich (capture beads + detection antibody m11, streptavidin-poly-HRP, tyramide); IL-6 at 100 fM
[33] = target: human interleukin-10 (IL-10) protein standard (printed as Biolegend 501501) (human) (UniProt P22301); test: conventional Simoa sandwich (capture beads + detector m5), 150 pM SβG/5 min; IL-10 at 3 fM
Chain of UniProt P22301 (P22301 19-178 limits assumed): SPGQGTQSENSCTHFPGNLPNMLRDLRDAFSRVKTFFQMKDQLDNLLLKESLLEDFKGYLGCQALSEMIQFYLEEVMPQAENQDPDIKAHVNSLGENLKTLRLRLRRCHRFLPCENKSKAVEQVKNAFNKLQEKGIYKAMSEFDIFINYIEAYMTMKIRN

[34] = target: human interleukin-10 (IL-10) protein standard (printed as Biolegend 501501) (human) (UniProt P22301); test: conventional Simoa sandwich (capture beads + detector m5), 150 pM SβG/15 min; IL-10 at 3 fM
[35] = target: human interleukin-10 (IL-10) protein standard (printed as Biolegend 501501) (human) (UniProt P22301); test: conventional Simoa sandwich (capture beads + detector m5), 150 pM SβG/5 min; IL-10 at 15 fM
[36] = target: human interleukin-10 (IL-10) protein standard (printed as Biolegend 501501) (human) (UniProt P22301); test: conventional Simoa sandwich (capture beads + detector m5), 150 pM SβG/5 min; IL-10 at 75 fM
[37] = target: human interleukin-10 (IL-10) protein standard (printed as Biolegend 501501) (human) (UniProt P22301); test: conventional Simoa sandwich (capture beads + detector m5), 150 pM SβG/15 min; IL-10 at 15 fM
[38] = target: human interleukin-10 (IL-10) protein standard (printed as Biolegend 501501) (human) (UniProt P22301); test: conventional Simoa sandwich (capture beads + detector m5), 150 pM SβG/15 min; IL-10 at 75 fM
[39] = target: human interleukin-10 (IL-10) protein standard (printed as Biolegend 501501) (human) (UniProt P22301); test: conventional Simoa sandwich (capture beads + detector m5), 150 pM SβG/5 min; IL-10 at 0.6 fM
[40] = target: human interleukin-10 (IL-10) protein standard (printed as Biolegend 501501) (human) (UniProt P22301); test: dSimoa sandwich (capture beads + detector m5), 150 pM streptavidin-DNA/15 min; IL-10 at 3 fM
[41] = target: human interleukin-10 (IL-10) protein standard (printed as Biolegend 501501) (human) (UniProt P22301); test: conventional Simoa sandwich (capture beads + detector m5), 150 pM SβG/15 min; IL-10 at 0.6 fM
[42] = target: human interleukin-10 (IL-10) protein standard (printed as Biolegend 501501) (human) (UniProt P22301); test: conventional Simoa sandwich (capture beads + detector m5), 150 pM SβG/5 min; IL-10 at 0.12 fM
[43] = target: human interleukin-10 (IL-10) protein standard (printed as Biolegend 501501) (human) (UniProt P22301); test: dSimoa sandwich (capture beads + detector m5), 150 pM streptavidin-DNA/15 min; IL-10 at 15 fM
[44] = target: human interleukin-10 (IL-10) protein standard (printed as Biolegend 501501) (human) (UniProt P22301); test: conventional Simoa sandwich (capture beads + detector m5), 150 pM SβG/15 min; IL-10 at 0.12 fM
[45] = target: human interleukin-10 (IL-10) protein standard (printed as Biolegend 501501) (human) (UniProt P22301); test: conventional Simoa sandwich (capture beads + detector m5), 150 pM SβG/5 min; IL-10 at 0.024 fM
[46] = target: human interleukin-10 (IL-10) protein standard (printed as Biolegend 501501) (human) (UniProt P22301); test: dSimoa sandwich (capture beads + detector m5), 150 pM streptavidin-DNA/15 min; IL-10 at 0.6 fM
[47] = target: human interleukin-10 (IL-10) protein standard (printed as Biolegend 501501) (human) (UniProt P22301); test: conventional Simoa sandwich (capture beads + detector m5), 150 pM SβG/15 min; IL-10 at 0.024 fM
[48] = target: human interleukin-10 (IL-10) protein standard (printed as Biolegend 501501) (human) (UniProt P22301); test: conventional Simoa sandwich (capture beads + detector m5), 150 pM SβG/5 min; IL-10 at 0.0048 fM
[49] = target: human interleukin-10 (IL-10) protein standard (printed as Biolegend 501501) (human) (UniProt P22301); test: dSimoa sandwich (capture beads + detector m5), 150 pM streptavidin-DNA/15 min; IL-10 at 0.12 fM
[50] = target: human interleukin-10 (IL-10) protein standard (printed as Biolegend 501501) (human) (UniProt P22301); test: conventional Simoa sandwich (capture beads + detector m5), 150 pM SβG/15 min; IL-10 at 0.0048 fM
[51] = target: human interleukin-10 (IL-10) protein standard (printed as Biolegend 501501) (human) (UniProt P22301); test: dSimoa sandwich (capture beads + detector m5), 150 pM streptavidin-DNA/15 min; IL-10 at 0.024 fM
[52] = target: human interleukin-10 (IL-10) protein standard (printed as Biolegend 501501) (human) (UniProt P22301); test: dSimoa sandwich (capture beads + detector m5), 150 pM streptavidin-DNA/15 min; IL-10 at 0.0048 fM
[53] = target: human interleukin-10 (IL-10) protein standard (printed as Biolegend 501501) (human) (UniProt P22301); test: dSimoa sandwich (capture beads + detector m5), 150 pM streptavidin-DNA/15 min; IL-10 at 0.00096 fM

Chain of UniProt O15178 (O15178 whole entry): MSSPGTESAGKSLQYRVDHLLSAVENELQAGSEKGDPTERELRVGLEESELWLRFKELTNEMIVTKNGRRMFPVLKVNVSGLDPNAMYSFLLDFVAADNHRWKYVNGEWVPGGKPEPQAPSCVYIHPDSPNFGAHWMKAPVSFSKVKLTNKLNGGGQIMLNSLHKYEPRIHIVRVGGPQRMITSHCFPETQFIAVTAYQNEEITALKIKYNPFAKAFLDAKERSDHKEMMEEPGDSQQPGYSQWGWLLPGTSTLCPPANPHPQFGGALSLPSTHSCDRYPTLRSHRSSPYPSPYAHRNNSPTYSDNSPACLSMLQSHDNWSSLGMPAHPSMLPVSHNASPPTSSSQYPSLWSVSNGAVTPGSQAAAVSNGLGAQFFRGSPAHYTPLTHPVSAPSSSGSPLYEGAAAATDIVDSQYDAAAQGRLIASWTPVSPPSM

Substance: Brachyury capture antibody (Abcam ab236023)
- average AEB [1]: 0.0425 AEB
- average AEB [2]: 0.156 AEB
- average AEB [3]: 0.105 AEB
- average AEB [4]: 0.0174 AEB
- average AEB [5]: 0.677 AEB
- average AEB [6]: 0.358 AEB
- average AMB [7]: 0.0417 AMB
- average AEB [8]: 0.012 AEB
- average AEB [9]: 5.97 AEB
- average AEB [10]: 0.0494 AEB
- average AEB [11]: 1.77 AEB
- average AMB [12]: 0.156 AMB
- average AEB [13]: 0.0108 AEB
- average AEB [14]: 0.0395 AEB
- average AEB [15]: 14.3 AEB
- average AMB [16]: 0.0173 AMB
- average AMB [17]: 0.825 AMB
- average AEB [18]: 0.0398 AEB
- average AMB [19]: 0.0147 AMB
- average AMB [20]: 0.0127 AMB

Substance: IL-6 capture antibody (R&D Systems MAB206)
- average AEB [21]: 0.0151 AEB
- average AEB [22]: 0.111 AEB
- average AEB [23]: 0.522 AEB
- average AEB [24]: 0.005 AEB
- average AEB [25]: 0.0098 AEB
- average AEB [26]: 1.03 AEB
- average AEB [27]: 0.0058 AEB
- average AEB [28]: 0.0151 AEB
- average AEB [29]: 0.0937 AEB
- average AEB [30]: 0.0031 AEB
- average AEB [31]: 0.005 AEB
- average AEB [32]: 0.171 AEB

Substance: IL-10 capture antibody (Biolegend 506802)
- average AEB [33]: 0.0765 AEB
- average AEB [34]: 0.107 AEB
- average AEB [35]: 0.306 AEB
- average AEB [36]: 1.41 AEB
- average AEB [37]: 0.386 AEB
- average AEB [38]: 2.05 AEB
- average AEB [39]: 0.0296 AEB
- average AMB [40]: 0.121 AMB
- average AEB [41]: 0.05 AEB
- average AEB [42]: 0.0208 AEB
- average AMB [43]: 0.561 AMB
- average AEB [44]: 0.0395 AEB
- average AEB [45]: 0.0218 AEB
- average AMB [46]: 0.0281 AMB
- average AEB [47]: 0.0439 AEB
- average AEB [48]: 0.0194 AEB
- average AMB [49]: 0.0097 AMB
- average AEB [50]: 0.0355 AEB
- average AMB [51]: 0.0058 AMB
- average AMB [52]: 0.0042 AMB
- average AMB [53]: 0.0045 AMB
